According to patent US10800847:

Key:
[1] = target: HLA-A*3101 (A31) single antigen on beads (human); assay: Luminex, iBead vs regular bead, IVIg 1:8
[2] = target: HLA-A*3001 (A30) single antigen on beads (human); assay: Luminex, iBead vs regular bead, IVIg 1:8
[3] = target: HLA-A*3601 (A36) single antigen on beads (human); assay: Luminex, iBead vs regular bead, IVIg 1:8
[4] = target: HLA-A*3301 (A33) single antigen on beads (human); assay: Luminex, iBead vs regular bead, IVIg 1:8
[5] = target: HLA-A*3402 (A34) single antigen on beads (human); assay: Luminex, iBead vs regular bead, IVIg 1:8
[6] = target: HLA-A*6801 (A68) single antigen on beads (human); assay: Luminex, iBead vs regular bead, IVIg 1:8
[7] = target: HLA-A*6601 (A66) single antigen on beads (human); assay: Luminex, iBead vs regular bead, IVIg 1:8
[8] = target: HLA-A*2902 (A29) single antigen on beads (human); assay: Luminex, iBead vs regular bead, IVIg 1:8
[9] = target: HLA-B*1503 (B72) (human); assay: iBead MFI against regular-bead MFI, IVIg diluted 1:8
[10] = target: HLA-B*1401 (B64) (human); assay: as above
[11] = target: HLA-B*1801 (B18) (human); assay: as above
[12] = target: HLA-B*1513 (B77) (human); assay: as above
[13] = target: HLA-B*1402 (B65) (human); assay: as above
[14] = target: HLA-B*1302 (B13) (human); assay: as above
[15] = target: HLA-B*1512 (B76) (human); assay: as above
[16] = target: HLA-B*0702 (B7) (human); assay: as above
[17] = target: HLA-B*1301 (B13) (human); assay: as above
[18] = target: HLA-B*1502 (B75) (human); assay: as above
[19] = target: HLA-B*1501 (B62) (human); assay: as above
[20] = target: Serum albumin on negative control beads (HSA/BSA) (human or bovine); assay: as above
[21] = target: HLA-B*1511 (B75) (human); assay: as above
[22] = target: HLA-B*1510 (B71) (human); assay: as above
[23] = target: HLA-B*0801 (B8) (human); assay: as above
[24] = target: HLA-B*1503 (B72) (human); assay: Luminex regular beads (#7), IVIg diluted 1:8
[25] = target: HLA-B*1401 (B64) (human); assay: Luminex regular beads (#7), IVIg diluted 1:8
[26] = target: HLA-B*1801 (B18) (human); assay: Luminex regular beads (#7), IVIg diluted 1:8
[27] = target: HLA-B*1513 (B77) (human); assay: Luminex regular beads (#7), IVIg diluted 1:8
[28] = target: HLA-B*1402 (B65) (human); assay: Luminex regular beads (#7), IVIg diluted 1:8
[29] = target: HLA-B*1302 (B13) (human); assay: Luminex regular beads (#7), IVIg diluted 1:8
[30] = target: HLA-B*1512 (B76) (human); assay: Luminex regular beads (#7), IVIg diluted 1:8
[31] = target: HLA-B*0702 (B7) (human); assay: Luminex regular beads (#7), IVIg diluted 1:8
[32] = target: HLA-B*1301 (B13) (human); assay: Luminex regular beads (#7), IVIg diluted 1:8
[33] = target: HLA-B*1502 (B75) (human); assay: Luminex regular beads (#7), IVIg diluted 1:8
[34] = target: HLA-B*1516 (B63) (human); assay: Luminex regular beads (#7), IVIg diluted 1:8
[35] = target: Serum albumin on negative control beads (HSA/BSA) (human or bovine); assay: Luminex regular beads (#7), IVIg diluted 1:8
[36] = target: HLA-B*1511 (B75) (human); assay: Luminex regular beads (#7), IVIg diluted 1:8
[37] = target: HLA-B*1510 (B71) (human); assay: Luminex regular beads (#7), IVIg diluted 1:8
[38] = target: HLA-B*0801 (B8) (human); assay: Luminex regular beads (#7), IVIg diluted 1:8
[39] = target: HLA-A*3001 (A30) single antigen on beads (human); assay: Luminex iBeads (#6), IVIg 1:8
[40] = target: HLA-A*6801 (A68) single antigen on beads (human); assay: Luminex iBeads (#6), IVIg 1:8
[41] = target: HLA-A*6602 (A66) single antigen on beads (human); assay: Luminex iBeads (#6), IVIg 1:8
[42] = target: HLA-A*6901 (A69) single antigen on Luminex beads (human); assay: Luminex single antigen bead assay, iBeads vs regular beads, IVIg 1:8
[43] = target: HLA-A*8001 (A80) single antigen on Luminex beads (human); assay: as above
[44] = target: HLA-A*3401 (A34) single antigen on beads (human); assay: Luminex, iBead vs regular bead, IVIg 1:8
[45] = target: HLA-A*3303 (A33) single antigen on beads (human); assay: Luminex, iBead vs regular bead, IVIg 1:8

Substance: IVIg Octagam (Octapharma, Lachen, Switzerland) (antibody)
- Difference % (iBead MFI vs regular bead MFI) [1]: -100%
- Difference % (iBead MFI vs regular bead MFI) [2]: -45%
- Difference % (iBead MFI vs regular bead MFI) [3]: -26%
- Difference % (iBead MFI vs regular bead MFI) [4]: -9%
- Difference % (iBead MFI vs regular bead MFI) [5]: 0%
- Difference % (iBead MFI vs regular bead MFI) [6]: 0%
- Difference % (iBead MFI vs regular bead MFI) [7]: -40%
- Difference % (iBead MFI vs regular bead MFI) [8]: 44%
- Difference % (iBead vs regular bead) [9]: -100%
- Difference % (iBead vs regular bead) [10]: -96%
- Difference % (iBead vs regular bead) [11]: -100%
- Difference % (iBead vs regular bead) [12]: -89%
- Difference % (iBead vs regular bead) [13]: -100%
- Difference % (iBead vs regular bead) [14]: -100%
- Difference % (iBead vs regular bead) [15]: 23%
- Difference % (iBead vs regular bead) [16]: -100%
- Difference % (iBead vs regular bead) [17]: -99%
- Difference % (iBead vs regular bead) [18]: -100%
- Difference % (iBead vs regular bead) [19]: -100%
- Difference % (iBead vs regular bead) [20]: -29%
- Difference % (iBead vs regular bead) [21]: -70%
- Difference % (iBead vs regular bead) [22]: -100%
- Difference % (iBead vs regular bead) [23]: -95%
- MFI [24]: 1060 MFI
- MFI [25]: 2400 MFI
- MFI [26]: 246 MFI
- MFI [27]: 2260 MFI
- MFI [28]: 1460 MFI
- MFI [29]: 1940 MFI
- MFI [30]: 1130 MFI
- MFI [31]: 714 MFI
- MFI [32]: 3680 MFI
- MFI [33]: 861 MFI
- MFI [34]: 3130 MFI
- MFI [35]: 2340 MFI
- MFI [36]: 3640 MFI
- MFI [37]: 1290 MFI
- MFI [38]: 2120 MFI
- MFI [39]: 510 MFI
- MFI [40]: 0 MFI
- MFI [41]: 684 MFI
- Difference % (iBead MFI against regular bead MFI) [42]: -53%
- Difference % (iBead MFI against regular bead MFI) [43]: -63%

Substance: IVIg Gamunex-C Lot NKLK1 (antibody)
- Difference % (iBead MFI vs regular bead MFI) [44]: 59%
- Difference % (iBead MFI vs regular bead MFI) [1]: 0%
- Difference % (iBead MFI vs regular bead MFI) [2]: 9%
- Difference % (iBead MFI vs regular bead MFI) [3]: 120%
- Difference % (iBead MFI vs regular bead MFI) [4]: 42%
- Difference % (iBead MFI vs regular bead MFI) [5]: 0%
- Difference % (iBead MFI vs regular bead MFI) [6]: 0%
- Difference % (iBead MFI vs regular bead MFI) [7]: 166%
- Difference % (iBead MFI vs regular bead MFI) [8]: 253%
- Difference % (iBead MFI vs regular bead MFI) [45]: 189%
- Difference % (iBead vs regular bead) [9]: -100%
- Difference % (iBead vs regular bead) [10]: -82%
- Difference % (iBead vs regular bead) [11]: -100%
- Difference % (iBead vs regular bead) [13]: -100%
- Difference % (iBead vs regular bead) [14]: -100%
- Difference % (iBead vs regular bead) [15]: 51%
- Difference % (iBead vs regular bead) [16]: -100%
- Difference % (iBead vs regular bead) [17]: -71%
- Difference % (iBead vs regular bead) [18]: -94%
- Difference % (iBead vs regular bead) [19]: 253%
- Difference % (iBead vs regular bead) [20]: -24%
- Difference % (iBead vs regular bead) [21]: -51%
- Difference % (iBead vs regular bead) [22]: -79%
- Difference % (iBead vs regular bead) [23]: -100%
- MFI [24]: 2300 MFI
- MFI [25]: 2280 MFI
- MFI [26]: 567 MFI
- MFI [27]: 3210 MFI
- MFI [28]: 1440 MFI
- MFI [29]: 2530 MFI
- MFI [31]: 837 MFI
- MFI [32]: 3520 MFI
- MFI [33]: 1540 MFI
- MFI [34]: 3130 MFI
- MFI [35]: 10300 MFI
- MFI [36]: 3820 MFI
- MFI [37]: 1620 MFI
- MFI [38]: 1760 MFI
- MFI [39]: 1340 MFI
- MFI [41]: 1860 MFI
- Difference % (iBead MFI against regular bead MFI) [42]: 4%
- Difference % (iBead MFI against regular bead MFI) [43]: -29%
